Measured values published in the supplement of paper PMC10065799, “High-throughput profiling of sequence recognition by tyrosine kinases and SH2 domains using bacterial peptide display” (eLife, 2023).

Columns and labels:
[1] = biological target: c-Src SH2; experiment: SH2 binding enrichment of the phosphorylated peptide, bacterial display (enrichment ratio); higher = better substrate or ligand; peptides without Tyr show the background
[2] = biological target: SHP2-C SH2; experiment: as above
[3] = biological target: Grb2 SH2 (UniProt P62993); experiment: as above
[4] = tested on: AncSZ; experiment: phosphorylation enrichment, bacterial display (enrichment ratio); higher = better substrate or ligand; peptides without Tyr show the background
[5] = tested on: c-Src; experiment: as above
[6] = biological target: EPHB2 (UniProt P29323); experiment: as above
Chain of EPHB2 (P29323 whole entry, looked up): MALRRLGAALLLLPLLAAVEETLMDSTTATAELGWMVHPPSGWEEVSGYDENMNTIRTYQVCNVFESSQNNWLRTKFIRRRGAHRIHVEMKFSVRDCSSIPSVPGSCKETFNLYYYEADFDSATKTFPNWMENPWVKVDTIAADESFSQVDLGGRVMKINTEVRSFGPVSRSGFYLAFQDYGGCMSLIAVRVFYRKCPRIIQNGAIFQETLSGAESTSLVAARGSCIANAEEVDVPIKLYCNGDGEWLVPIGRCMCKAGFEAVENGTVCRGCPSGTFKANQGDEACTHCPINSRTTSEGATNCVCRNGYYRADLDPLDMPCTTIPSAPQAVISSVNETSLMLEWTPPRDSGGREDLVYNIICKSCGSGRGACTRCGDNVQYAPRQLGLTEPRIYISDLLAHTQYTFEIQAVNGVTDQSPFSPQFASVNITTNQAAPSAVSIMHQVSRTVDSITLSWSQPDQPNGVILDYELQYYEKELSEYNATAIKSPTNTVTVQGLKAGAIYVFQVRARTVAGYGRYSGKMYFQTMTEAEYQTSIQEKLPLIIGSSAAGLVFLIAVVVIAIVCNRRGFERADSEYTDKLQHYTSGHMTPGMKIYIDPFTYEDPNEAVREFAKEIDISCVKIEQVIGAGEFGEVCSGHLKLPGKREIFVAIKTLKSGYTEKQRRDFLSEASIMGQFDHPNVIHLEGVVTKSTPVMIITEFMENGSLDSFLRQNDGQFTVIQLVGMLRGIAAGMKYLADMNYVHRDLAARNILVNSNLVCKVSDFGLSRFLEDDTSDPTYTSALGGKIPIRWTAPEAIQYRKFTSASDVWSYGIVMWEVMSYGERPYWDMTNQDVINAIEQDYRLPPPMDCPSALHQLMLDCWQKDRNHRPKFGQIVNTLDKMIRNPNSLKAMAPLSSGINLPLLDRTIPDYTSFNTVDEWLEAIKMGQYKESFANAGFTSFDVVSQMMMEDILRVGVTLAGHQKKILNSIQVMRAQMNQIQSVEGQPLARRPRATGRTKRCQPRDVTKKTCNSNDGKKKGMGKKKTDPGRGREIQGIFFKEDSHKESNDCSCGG

[7] = biological target: EPHB1 (UniProt P54762); experiment: as above
Chain of EPHB1 (P54762 whole entry, looked up): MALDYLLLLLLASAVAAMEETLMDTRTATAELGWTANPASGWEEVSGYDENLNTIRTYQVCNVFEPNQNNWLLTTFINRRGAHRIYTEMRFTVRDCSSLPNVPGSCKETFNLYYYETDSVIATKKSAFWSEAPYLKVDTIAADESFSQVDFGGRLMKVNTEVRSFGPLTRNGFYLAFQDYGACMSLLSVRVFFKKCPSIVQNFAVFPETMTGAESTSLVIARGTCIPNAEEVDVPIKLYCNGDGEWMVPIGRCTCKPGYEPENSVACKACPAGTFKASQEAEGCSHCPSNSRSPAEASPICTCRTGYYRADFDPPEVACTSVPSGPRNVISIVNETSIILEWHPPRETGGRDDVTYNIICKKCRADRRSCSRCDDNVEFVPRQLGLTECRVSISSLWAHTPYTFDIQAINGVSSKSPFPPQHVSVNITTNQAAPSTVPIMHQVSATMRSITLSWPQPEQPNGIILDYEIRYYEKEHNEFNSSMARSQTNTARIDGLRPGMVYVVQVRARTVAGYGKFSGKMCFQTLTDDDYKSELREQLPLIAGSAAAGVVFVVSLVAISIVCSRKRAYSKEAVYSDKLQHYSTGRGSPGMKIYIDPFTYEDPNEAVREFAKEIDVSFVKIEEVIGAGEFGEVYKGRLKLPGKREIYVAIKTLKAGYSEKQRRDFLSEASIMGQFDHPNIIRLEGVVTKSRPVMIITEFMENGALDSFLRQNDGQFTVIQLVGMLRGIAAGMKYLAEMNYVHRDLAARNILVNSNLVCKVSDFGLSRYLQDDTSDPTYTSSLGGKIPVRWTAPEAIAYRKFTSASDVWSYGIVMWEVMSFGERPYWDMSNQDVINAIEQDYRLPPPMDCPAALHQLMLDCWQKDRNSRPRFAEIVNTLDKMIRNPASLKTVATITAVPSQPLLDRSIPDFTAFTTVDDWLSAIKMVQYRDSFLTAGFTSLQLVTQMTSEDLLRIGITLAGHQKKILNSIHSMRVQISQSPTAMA

[8] = biological target: Jak2 (UniProt O60674); experiment: as above
[9] = biological target: Fyn (UniProt P06241); experiment: as above
Chain of Fyn (P06241 whole entry, looked up): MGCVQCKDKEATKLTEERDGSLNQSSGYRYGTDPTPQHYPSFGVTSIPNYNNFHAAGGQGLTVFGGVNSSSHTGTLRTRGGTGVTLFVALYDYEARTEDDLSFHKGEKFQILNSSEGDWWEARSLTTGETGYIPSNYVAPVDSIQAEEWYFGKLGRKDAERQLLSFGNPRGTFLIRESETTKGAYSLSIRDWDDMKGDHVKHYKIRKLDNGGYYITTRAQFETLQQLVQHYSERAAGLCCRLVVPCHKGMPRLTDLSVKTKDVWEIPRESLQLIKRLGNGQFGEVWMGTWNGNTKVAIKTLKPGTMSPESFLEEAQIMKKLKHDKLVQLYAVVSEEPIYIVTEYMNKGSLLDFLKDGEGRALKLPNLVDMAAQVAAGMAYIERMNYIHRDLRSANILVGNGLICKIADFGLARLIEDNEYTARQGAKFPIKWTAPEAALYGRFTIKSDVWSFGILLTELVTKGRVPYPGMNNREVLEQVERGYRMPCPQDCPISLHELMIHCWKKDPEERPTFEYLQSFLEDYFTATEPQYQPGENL

[10] = biological target: MERTK (UniProt Q12866); experiment: as above
Chain of MERTK (Q12866 whole entry, looked up): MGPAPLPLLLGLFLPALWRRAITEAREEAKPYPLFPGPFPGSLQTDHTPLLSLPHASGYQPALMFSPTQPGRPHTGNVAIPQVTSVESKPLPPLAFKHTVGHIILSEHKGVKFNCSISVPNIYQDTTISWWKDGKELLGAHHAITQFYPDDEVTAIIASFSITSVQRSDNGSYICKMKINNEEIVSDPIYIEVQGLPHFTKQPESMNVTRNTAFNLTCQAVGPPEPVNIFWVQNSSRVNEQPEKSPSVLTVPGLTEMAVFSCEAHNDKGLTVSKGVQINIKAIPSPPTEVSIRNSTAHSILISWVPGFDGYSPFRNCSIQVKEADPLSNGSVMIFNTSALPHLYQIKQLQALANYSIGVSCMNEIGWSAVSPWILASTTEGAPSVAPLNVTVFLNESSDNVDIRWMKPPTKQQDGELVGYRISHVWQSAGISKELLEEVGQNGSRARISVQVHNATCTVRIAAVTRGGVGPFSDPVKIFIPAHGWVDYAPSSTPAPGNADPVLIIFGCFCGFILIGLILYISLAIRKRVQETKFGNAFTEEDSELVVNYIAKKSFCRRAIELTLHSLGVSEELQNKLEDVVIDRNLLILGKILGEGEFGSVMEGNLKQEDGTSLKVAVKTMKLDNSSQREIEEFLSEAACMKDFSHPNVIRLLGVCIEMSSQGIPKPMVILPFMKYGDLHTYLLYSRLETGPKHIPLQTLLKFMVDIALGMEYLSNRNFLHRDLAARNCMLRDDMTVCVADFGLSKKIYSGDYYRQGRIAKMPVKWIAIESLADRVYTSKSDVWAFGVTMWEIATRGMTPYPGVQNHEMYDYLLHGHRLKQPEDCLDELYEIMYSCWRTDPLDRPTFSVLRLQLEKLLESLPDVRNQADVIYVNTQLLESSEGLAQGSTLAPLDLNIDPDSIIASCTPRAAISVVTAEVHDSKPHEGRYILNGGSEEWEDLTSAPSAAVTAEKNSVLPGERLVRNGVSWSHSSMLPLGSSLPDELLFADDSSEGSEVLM

[11] = tested on: Fer (mouse); experiment: as above
[12] = biological target: Hck (UniProt P08631); experiment: as above
Chain of Hck (P08631 whole entry, looked up): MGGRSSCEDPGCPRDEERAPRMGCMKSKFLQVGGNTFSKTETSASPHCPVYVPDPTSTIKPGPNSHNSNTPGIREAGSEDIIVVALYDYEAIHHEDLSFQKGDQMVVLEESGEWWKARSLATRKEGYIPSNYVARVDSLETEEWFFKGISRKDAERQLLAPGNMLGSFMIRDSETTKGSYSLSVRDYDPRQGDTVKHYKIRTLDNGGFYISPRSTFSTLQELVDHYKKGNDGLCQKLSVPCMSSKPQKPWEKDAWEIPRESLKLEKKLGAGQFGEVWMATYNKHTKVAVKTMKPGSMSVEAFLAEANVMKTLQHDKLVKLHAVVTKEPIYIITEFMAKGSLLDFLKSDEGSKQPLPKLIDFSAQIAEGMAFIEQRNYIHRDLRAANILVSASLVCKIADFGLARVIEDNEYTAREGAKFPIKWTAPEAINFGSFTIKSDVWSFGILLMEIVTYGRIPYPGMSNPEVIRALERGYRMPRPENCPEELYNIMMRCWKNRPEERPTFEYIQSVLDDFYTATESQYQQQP

[13] = biological target: FGFR1 (UniProt P11362); experiment: as above
[14] = biological target: FGFR3 (UniProt P22607); experiment: as above
[15] = biological target: Fes (UniProt P07332); experiment: as above
Chain of Fes (P07332 whole entry, looked up): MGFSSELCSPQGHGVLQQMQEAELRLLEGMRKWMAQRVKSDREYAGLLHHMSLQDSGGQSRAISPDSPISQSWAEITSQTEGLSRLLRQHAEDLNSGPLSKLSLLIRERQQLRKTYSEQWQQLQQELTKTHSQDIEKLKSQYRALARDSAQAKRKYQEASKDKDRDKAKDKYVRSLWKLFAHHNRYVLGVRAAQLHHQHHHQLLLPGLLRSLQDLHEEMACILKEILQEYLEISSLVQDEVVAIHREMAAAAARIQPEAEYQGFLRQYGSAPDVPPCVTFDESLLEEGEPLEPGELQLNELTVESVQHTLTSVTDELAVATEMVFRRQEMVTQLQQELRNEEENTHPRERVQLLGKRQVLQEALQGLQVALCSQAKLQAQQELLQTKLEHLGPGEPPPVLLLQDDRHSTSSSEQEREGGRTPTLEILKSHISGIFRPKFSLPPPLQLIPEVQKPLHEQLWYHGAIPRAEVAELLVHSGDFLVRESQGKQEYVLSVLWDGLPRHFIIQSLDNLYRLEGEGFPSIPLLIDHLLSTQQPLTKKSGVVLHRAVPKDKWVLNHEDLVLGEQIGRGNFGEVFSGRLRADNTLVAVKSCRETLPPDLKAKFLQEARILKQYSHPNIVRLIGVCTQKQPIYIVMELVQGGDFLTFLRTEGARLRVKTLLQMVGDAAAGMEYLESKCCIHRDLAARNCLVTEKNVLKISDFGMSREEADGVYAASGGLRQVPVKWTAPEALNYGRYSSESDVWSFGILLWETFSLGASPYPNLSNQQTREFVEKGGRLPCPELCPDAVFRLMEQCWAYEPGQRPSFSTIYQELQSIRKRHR

[16] = tested on: c-Abl (mouse); experiment: as above
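Throughout, for SH2 binding enrichment of the phosphorylated peptide, bacterial display: peptide library displayed on the E. coli surface as eCPX fusions, selected cells deep-sequenced, score is each peptide's frequency after selection divided by its frequency in the input.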
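Throughout, for phosphorylation enrichment, bacterial display: 11-residue human phosphosite peptides and single-mutation variants displayed on the E. coli surface, counted by deep sequencing, each peptide's frequency after selection divided by its frequency in the unselected input library; frequency after pTyr selection over input frequency; kinase dosed for 20-30% of maximal phosphorylation in three min.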

Sequence | SH2 binding enrichment [1] | SH2 binding enrichment [2] | SH2 binding enrichment [3] | phosphorylation enrichment [4] | phosphorylation enrichment [5] | phosphorylation enrichment [6] | phosphorylation enrichment [7] | phosphorylation enrichment [8] | phosphorylation enrichment [9] | phosphorylation enrichment [10] | phosphorylation enrichment [11] | phosphorylation enrichment [12] | phosphorylation enrichment [13] | phosphorylation enrichment [14] | phosphorylation enrichment [15] | phosphorylation enrichment [16]
PFTRNYFVQAV [CYBA_Y87_R90Q_YF] | 0.533 | 0.467 | 0.634 | 0.963 | 0.353 | 0.747 | 0.601 | 0.6 | 0.943 | 0.763 | 1.25 | 0.979 | 1.16 | 0.905 | 1.2 | 0.65
SFPSYYTSHVQ [NEFL_Y443] | 0.877 | 1.2 | 1.18 | 0.88 | 0.737 | 1.1 | 1.88 | 4.39 | 0.59 | 5.38 | 0.759 | 1.1 | 1.86 | 1.76 | 0.914 | 1.85
KPIETYFSKNY [PLP1_Y50_L46P] | 0.599 | 0.654 | 0.851 | 0.595 | 0.452 | 0.408 | 0.392 | 0.534 | 0.448 | 0.466 | 0.4 | 0.45 | 0.466 | 0.597 | 0.603 | 0.473
LARNMYDKEYY [MET_Y1230_D1228N] | 0.71 | 0.673 | 0.843 | 1.13 | 0.611 | 0.546 | 0.482 | 0.84 | 0.441 | 0.358 | 0.468 | 0.605 | 0.631 | 0.569 | 0.872 | 0.565
FFFDLYGGEKF [PTPN11_Y66_D61Y_YF] | 0.631 | 1.36 | 0.831 | 0.923 | 1.15 | 0.418 | 0.53 | 0.993 | 0.66 | 0.371 | 0.418 | 0.981 | 0.415 | 0.534 | 0.979 | 0.665
HRGFLYLAIEF [TEK_Y899_Y897F_YF] | 0.556 | 0.819 | 1.13 | 1.49 | 0.687 | 0.539 | 0.765 | 1.7 | 0.352 | 0.711 | 0.968 | 0.627 | 0.515 | 1.02 | 1.67 | 1.52
VRFMAYTDETC [F8_Y450_F455C] | 0.627 | 1.03 | 0.83 | 1.11 | 0.413 | 0.59 | 0.649 | 1.05 | 0.403 | 0.431 | 0.522 | 0.662 | 0.544 | 0.773 | 1.3 | 0.973
LFHENYNAGTF [CFI_Y421_I416L_YF] | 0.539 | 0.856 | 0.72 | 0.928 | 0.649 | 1.23 | 0.848 | 1.07 | 0.683 | 0.654 | 0.822 | 0.596 | 0.634 | 0.941 | 1.11 | 0.597
RSRRSYSCQVM [IGLL1_Y192] | 0.565 | 0.565 | 0.473 | 0.754 | 0.924 | 0.802 | 0.616 | 0.774 | 0.808 | 0.9 | 0.639 | 0.64 | 0.586 | 0.832 | 0.862 | 0.797
VDEERYDIEGK [TNNI3_Y112_A116G] | 0.683 | 0.98 | 1.02 | 1.44 | 0.509 | 0.74 | 0.737 | 1.3 | 0.506 | 0.491 | 0.561 | 0.623 | 0.539 | 0.754 | 1.3 | 0.896
RHPREYQDLLN [DES_Y388_L385P] | 1.29 | 0.906 | 1.06 | 0.668 | 0.464 | 0.569 | 0.537 | 0.785 | 0.698 | 0.41 | 0.327 | 0.463 | 0.377 | 0.572 | 0.545 | 0.487
CCNHPYRINGA [CHD7_Y1256_L1257R] | 0.51 | 0.537 | 0.861 | 0.505 | 0.64 | 0.46 | 0.38 | 0.396 | 0.542 | 0.404 | 0.454 | 0.464 | 0.575 | 0.564 | 0.621 | 0.434
FRASFYRKGGC [ALK_Y1283_YF] | 0.499 | 0.502 | 0.616 | 0.866 | 0.586 | 0.527 | 0.459 | 0.683 | 0.618 | 0.579 | 0.466 | 0.477 | 0.531 | 0.532 | 0.902 | 0.663
MRNDLYQTPLH [NFKB1_Y582] | 0.381 | 0.55 | 0.697 | 1.69 | 1.94 | 2.44 | 1.19 | 0.693 | 1.8 | 2.62 | 4.12 | 4.21 | 0.454 | 0.57 | 0.845 | 5.88
PGAGHYEDTIL [ALK_Y1604] | 3.04 | 0.559 | 0.797 | 1.15 | 0.391 | 0.597 | 0.871 | 0.896 | 0.809 | 0.597 | 6.12 | 0.786 | 0.664 | 0.881 | 1.16 | 0.765
SEVVPYEPPEV [TP53_Y220_V216E] | 0.563 | 1.02 | 0.902 | 1.28 | 0.529 | 0.621 | 0.604 | 1.16 | 0.583 | 0.473 | 0.585 | 0.582 | 0.601 | 0.81 | 1.33 | 0.784
DPLLTHRFPPK [LMNA_Y481_Y481H] | 0.458 | 0.661 | 0.834 | 0.434 | 0.406 | 0.242 | 0.288 | 0.571 | 0.411 | 0.421 | 0.36 | 0.381 | 0.459 | 0.43 | 0.521 | 0.395

Sequence | SH2 binding enrichment [1] | SH2 binding enrichment [2] | SH2 binding enrichment [3] | phosphorylation enrichment [4] | phosphorylation enrichment [5] | phosphorylation enrichment [6] | phosphorylation enrichment [7] | phosphorylation enrichment [8] | phosphorylation enrichment [9] | phosphorylation enrichment [10] | phosphorylation enrichment [11] | phosphorylation enrichment [12] | phosphorylation enrichment [13] | phosphorylation enrichment [14] | phosphorylation enrichment [15] | phosphorylation enrichment [16]
SLTGAYASGIP [POM121C_Y378_T379A] | 0.533 | 0.602 | 0.732 | 0.627 | 0.482 | 0.43 | 0.518 | 0.904 | 0.478 | 0.436 | 0.453 | 0.575 | 0.519 | 0.602 | 0.906 | 0.647
VQVAFYTVMMN [SPATA17_Y84_M86V_YF] | 0.632 | 0.69 | 0.815 | 1.18 | 0.71 | 0.737 | 1.17 | 1.36 | 0.567 | 1.84 | 0.677 | 0.605 | 0.643 | 0.959 | 1.44 | 1.07
DAAEDYAEGVC [DHODH_Y194_R199C] | 0.609 | 0.598 | 0.816 | 1.31 | 0.559 | 0.713 | 0.801 | 1.19 | 0.566 | 0.492 | 0.765 | 0.559 | 0.658 | 0.895 | 1.24 | 0.917
QDRTFYERVRT [SPEN_Y633_S635R_YF] | 2.36 | 4.46 | 0.603 | 0.583 | 0.402 | 0.42 | 0.416 | 0.509 | 0.403 | 0.539 | 3.63 | 1.2 | 0.529 | 0.441 | 0.591 | 0.582
DKNSSYFADWF [TUBB8_Y340_L345F] | 0.681 | 0.821 | 0.984 | 0.992 | 0.435 | 0.507 | 0.676 | 1.32 | 0.479 | 2.04 | 0.345 | 0.397 | 2.44 | 1.62 | 1.01 | 0.613
QKMADYSNKLH [PDPR_Y104_Y109H] | 0.466 | 1.13 | 0.766 | 0.843 | 0.706 | 0.864 | 0.569 | 0.974 | 0.382 | 0.429 | 0.571 | 0.586 | 0.527 | 0.708 | 0.835 | 0.714
DPLLTYRFPPN [LMNA_Y481_K486N] | 0.605 | 0.66 | 0.747 | 0.882 | 0.65 | 0.455 | 0.446 | 0.768 | 0.51 | 0.497 | 0.472 | 0.503 | 0.766 | 0.861 | 0.751 | 0.649
FAELVYTGFWH [ASS1_Y322] | 0.524 | 0.698 | 0.87 | 1.54 | 7.01 | 2.59 | 2.21 | 1.67 | 8.14 | 6.23 | 6.97 | 6 | 2.22 | 1.85 | 1.41 | 8.78
PESCFYKESWL [IQGAP2_Y630_L629F] | 0.63 | 0.823 | 1.05 | 1.51 | 0.516 | 0.671 | 0.772 | 0.941 | 0.616 | 0.538 | 0.973 | 0.555 | 0.707 | 1.31 | 1.57 | 0.766
PPNSPYMGSSP [KCNT1_Y740_I741M] | 0.481 | 0.759 | 0.869 | 1.01 | 0.59 | 0.536 | 0.497 | 0.825 | 0.546 | 0.468 | 0.612 | 0.521 | 0.632 | 0.818 | 0.868 | 0.782
DAVAVYDGKIS [SH2D1A_Y7_H8D] | 0.47 | 0.999 | 0.735 | 0.721 | 0.83 | 0.622 | 0.589 | 0.778 | 0.655 | 0.498 | 0.456 | 2.02 | 0.44 | 0.565 | 0.988 | 0.728
FCRHNYGVGES [HLA-DRB1_Y112_V115G_YF] | 0.738 | 0.827 | 1.02 | 0.657 | 0.373 | 0.527 | 0.421 | 0.62 | 0.498 | 0.372 | 0.396 | 0.339 | 0.387 | 0.573 | 0.687 | 0.606
DTLLEYLENPK [CYCS_Y68_M66L] | 0.501 | 0.735 | 0.763 | 1.45 | 0.463 | 0.535 | 0.7 | 1.04 | 0.493 | 0.448 | 0.576 | 0.511 | 0.503 | 0.828 | 1.25 | 0.668
KRLYAYKMLMA [TMC2_Y209_Q205R] | 1.84 | 1.68 | 1.83 | 0.731 | 0.399 | 0.493 | 0.492 | 0.675 | 0.327 | 0.348 | 0.42 | 0.436 | 0.453 | 0.568 | 0.869 | 0.684
EVASVYESFQP [MAVS_Y92_Q93E_YF] | 0.561 | 0.475 | 0.783 | 1.91 | 8.96 | 1.01 | 1.1 | 1.65 | 11.2 | 3.2 | 14 | 8.64 | 0.668 | 0.852 | 1.31 | 1.56
TDIVAYSGRVQ [SPTBN2_Y477] |  |  |  | 0.857 | 1.05 | 2.04 | 0.369 | 1.48 | 1.05 | 0.885 | 0.264 | 0.407 | 0.214 | 1.05 | 0.196 | 1.13
